Experimental data: patent CN113480646A (INST BIOPHYSICS CAS; UNIV PEKING FIRST HOSPITAL, dated 2021)

Columns and labels:
[1] = biological target: T1, 内源过表达的组蛋白H1.4(WT H1.4), Flag fusion expressed from pFLAG-CMV-WT H1.4 in NIH 3T3 cells; test: Western blot, lysate of transfected NIH 3T3 cells
T1 construct: Overexpressed in mouse NIH 3T3 cells; Tested as SDS cell lysate (50 ug total protein) by Western blot; also called 野生型H1.4

[2] = biological target: T2, 体外纯化的H1.4移码突变蛋白(H1.4 K157E fs*), fusion protein expressed from pET-28a-H1.4 K157E; test: Western blot, 100 ng purified protein
T2 construct: Expressed in E. coli BL21(DE3) and purified; 100 ng was loaded, denatured, for the Western blot; also called Lys157Glu fs*39; H1.4 K157E移码突变体
T2 chain: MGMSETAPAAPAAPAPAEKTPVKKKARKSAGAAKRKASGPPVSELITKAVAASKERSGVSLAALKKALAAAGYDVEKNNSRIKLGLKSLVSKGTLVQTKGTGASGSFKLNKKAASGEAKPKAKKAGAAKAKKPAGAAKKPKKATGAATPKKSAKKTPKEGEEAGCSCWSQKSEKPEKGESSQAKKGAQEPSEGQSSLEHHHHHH

[3] = biological target: T3, 体外纯化的组蛋白H1.4(WT H1.4), fusion protein expressed from pET-28a-WT H1.4 (Homo sapiens (Human), UniProt P10412 1-219); test: Western blot, purified protein
T3 construct: Expressed in E. coli BL21(DE3) and purified; 100 ng was loaded, denatured, for the Western blot; also called 野生型H1.4

B1: 特异性结合H1.4移码突变蛋白的单克隆抗体 (hybridoma cell line A1) (antibody, mouse IgG1, kappa, V domains shown)
VH: QIQLVQSGPELKKPGETVKISCKASGYTFTDYSMQWMKQAPGKGLKWMGWIDTGTGEPSYADDFKGRFAFSLETSASTAYLQINNLKNEDTATYFCARRSYGYFAFWGQGTLVAVSA
VL: DVVMTQTPLSLPVSLGDQASISCRSSQNIVHVNGNTYLEWYLQKPGQSPKLLIYKVSNRFSGVPDRFSGSGSGTEFTLKISRVEAEDLGVYYCFQGSHVPFTFGAGTKLELKR
notes: also called H1.4移码突变抗体; H1.4移码突变的抗体
binding result [1]: no binding (tested: 50μg total lysate protein)
binding result [2]: binds
binding result [3]: no binding (tested: 100ng)
